Experimental data reported in PMC5531659, “Small molecule perturbation of the CAND1-Cullin1-ubiquitin cycle stabilizes p53 and triggers Epstein-Barr virus reactivation” (PLoS Pathogens, 2017).

Biological target: T1, Cullin 1 (human (endogenous in Mutu I and 293T), UniProt Q13616 1-776)
T1 construct: Cullin 1, human, endogenous protein of Mutu I and 293T cells; Neddylated and deneddylated forms are seen on blots; also called Cul1; Cul 1; source: endogenous, Mutu I lysate; endogenous, 293T lysate
Experiment: co-IP; Mutu I total cell lysates (cells treated with DMSO or C60 for 48 hrs); IP with antibody to Cullin 1, CAND1 or IgG on protein A beads in SDS-free lysis buffer (50 mM Tris-HCl pH 7.6, 120 mM NaCl, 0.1% NP40, 1 mM EDTA), overnight 4°C; Western blot for Cullin 1 or CAND1
Settings: partners not purified

T1 sequence (Q13616 whole entry): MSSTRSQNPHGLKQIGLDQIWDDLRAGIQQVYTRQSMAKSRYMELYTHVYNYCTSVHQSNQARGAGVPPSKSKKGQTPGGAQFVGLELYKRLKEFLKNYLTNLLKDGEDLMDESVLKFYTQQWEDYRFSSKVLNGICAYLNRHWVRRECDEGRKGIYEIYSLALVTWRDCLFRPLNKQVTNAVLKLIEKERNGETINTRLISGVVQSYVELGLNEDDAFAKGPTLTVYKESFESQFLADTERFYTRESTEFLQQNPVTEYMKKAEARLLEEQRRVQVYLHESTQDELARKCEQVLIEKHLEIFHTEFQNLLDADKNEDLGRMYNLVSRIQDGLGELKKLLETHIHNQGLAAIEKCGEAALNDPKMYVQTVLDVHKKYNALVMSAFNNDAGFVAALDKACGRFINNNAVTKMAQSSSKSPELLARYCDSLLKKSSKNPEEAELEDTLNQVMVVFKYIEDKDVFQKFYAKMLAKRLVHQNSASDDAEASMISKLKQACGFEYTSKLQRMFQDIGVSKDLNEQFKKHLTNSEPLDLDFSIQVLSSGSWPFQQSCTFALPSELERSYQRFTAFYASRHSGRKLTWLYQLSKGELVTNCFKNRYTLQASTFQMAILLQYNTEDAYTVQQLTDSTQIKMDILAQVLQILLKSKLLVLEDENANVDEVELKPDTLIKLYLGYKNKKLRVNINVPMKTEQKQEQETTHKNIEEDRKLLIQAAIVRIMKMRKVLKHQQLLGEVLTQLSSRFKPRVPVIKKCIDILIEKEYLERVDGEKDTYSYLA

B1: Cullin-associated and neddylation-dissociated 1 (CAND1) (natural protein, human (endogenous in Mutu I and 293T), UniProt Q86VP6 1-1230, looked up)
chain: MASASYHISNLLEKMTSSDKDFRFMATNDLMTELQKDSIKLDDDSERKVVKMILKLLEDKNGEVQNLAVKCLGPLVSKVKEYQVETIVDTLCTNMLSDKEQLRDISSIGLKTVIGELPPASSGSALAANVCKKITGRLTSAIAKQEDVSVQLEALDIMADMLSRQGGLLVNFHPSILTCLLPQLTSPRLAVRKRTIIALGHLVMSCGNIVFVDLIEHLLSELSKNDSMSTTRTYIQCIAAISRQAGHRIGEYLEKIIPLVVKFCNVDDDELREYCIQAFESFVRRCPKEVYPHVSTIINICLKYLTYDPNYNYDDEDEDENAMDADGGDDDDQGSDDEYSDDDDMSWKVRRAAAKCLDAVVSTRHEMLPEFYKTVSPALISRFKEREENVKADVFHAYLSLLKQTRPVQSWLCDPDAMEQGETPLTMLQSQVPNIVKALHKQMKEKSVKTRQCCFNMLTELVNVLPGALTQHIPVLVPGIIFSLNDKSSSSNLKIDALSCLYVILCNHSPQVFHPHVQALVPPVVACVGDPFYKITSEALLVTQQLVKVIRPLDQPSSFDATPYIKDLFTCTIKRLKAADIDQEVKERAISCMGQIICNLGDNLGSDLPNTLQIFLERLKNEITRLTTVKALTLIAGSPLKIDLRPVLGEGVPILASFLRKNQRALKLGTLSALDILIKNYSDSLTAAMIDAVLDELPPLISESDMHVSQMAISFLTTLAKVYPSSLSKISGSILNELIGLVRSPLLQGGALSAMLDFFQALVVTGTNNLGYMDLLRMLTGPVYSQSTALTHKQSYYSIAKCVAALTRACPKEGPAVVGQFIQDVKNSRSTDSIRLLALLSLGEVGHHIDLSGQLELKSVILEAFSSPSEEVKSAASYALGSISVGNLPEYLPFVLQEITSQPKRQYLLLHSLKEIISSASVVGLKPYVENIWALLLKHCECAEEGTRNVVAECLGKLTLIDPETLLPRLKGYLISGSSYARSSVVTAVKFTISDHPQPIDPLLKNCIGDFLKTLEDPDLNVRRVALVTFNSAAHNKPSLIRDLLDTVLPHLYNETKVRKELIREVEMGPFKHTVDDGLDIRKAAFECMYTLLDSCLDRLDIFEFLNHVEDGLKDHYDIKMLTFLMLVRLSTLCPSAVLQRLDRLVEPLRATCTTKVKANSVKQEFEKQDELKRSAMRAVAALLTIPEAEKSPLMSEFQSQISSNPELAAIFESIQKDSSSTNLESMDTS
notes: CAND1, human, endogenous protein of Mutu I and 293T cells; also called TIP120A; source: endogenous, Mutu I lysate; endogenous, 293T lysate
  fold decrease of the association in C60-treated against DMSO-treated cells: ~5 fold
